Source: patent US20010052137A1, “Axin domain-like polypeptide inhibitors of glycogen synthase kinase 3 beta activity and activators of wnt signaling” (Trustees of the University of Pennsylvania, priority 2000, published 2001)
Entries after “also recorded” stand apart in the source; their conditions may differ.

B1: GID-4: Myc-tagged fragment, Xaxin amino acid residues 350-429 (protein)
chain: KHYRREMQESANANGRGPLPHIPRTYHMPKDIHVDPEKFAAELISRLEGVLRDREAEQKLEERLKRVRAEEEGDDGDVSS
modifications: left off: small tags and cut ends
B2: deltaDIX: Xaxin having amino acid residues 778-842 deleted (protein)
chain: MSVKGKGFPLDLGGSFTEDAPRPPVPGEEGELITTDQRPFSHTYYSLKNDGIKNETSTATPRRPDLDLGYEPEGSASPTPPYLKWAESLHSLLDDQDGIHLFRTFLQQENCADLLDFWFACSGFRKLEPNDSKVEKRLKLAKAIYKKYVLDSNGIVSRQIKPATKSFIKDCVLRQQIDPAMFDQAQMEIQSMMEDNTYPVFLKSDIYLEYTTIGGESPKNYSDQSSGSGTGKGPSGYLPTLNEDEEWRCDQGGEHERERECIPSSLFSQKLALDSSSHCAGSNRRLSDGREFRPGTWREPVNPYYVNTGYAGAPVTSANDSEQQSMSSDADTMSLTDSSVDGIPPYRLRKHYRREMQESANANGRGPLPHIPRTYHMPKDIHVDPEKFAAELISRLEGVLRDREAEQKLEERLKRVRAEEEGDDGDVSSGPSVISHKLPSGPPMHHFNSRYSETGCVGMQIRDAHEENPESILDEHVQRVMKTPGCQSPGTGRHSPKSRSPDGHLSKTLPGSLGTMQTGHGKHSSKSTAKVDSGNLHHHKHVYHHVHHHGGVKPKEQIDGESTQRVQTNFPWNVESHNYATKSRNYAESMGMAPNPMDSLAYSGKVSMLSKRNAKKADLGKSESASHEMPVVPEDSERHQKILQWIMEGEKEIIRHKKSNHSSSSAKKQPPTELARPLSIERPGAVHPWVSAQLRNVVQPSHPFIQDPTMPPNPAPNPLTQLVSKPGARLEEEEKKAAKMPQKQRLKPQKKNVSAPSQPCDNIVVAYYFCGEPIPYRT
modifications: left off: small tags and cut ends
notes: Xaxin having amino acid residues 778-842 deleted
B3: deltaGID: Xaxin having amino acid residues 324-504 deleted (protein)
chain: MSVKGKGFPLDLGGSFTEDAPRPPVPGEEGELITTDQRPFSHTYYSLKNDGIKNETSTATPRRPDLDLGYEPEGSASPTPPYLKWAESLHSLLDDQDGIHLFRTFLQQENCADLLDFWFACSGFRKLEPNDSKVEKRLKLAKAIYKKYVLDSNGIVSRQIKPATKSFIKDCVLRQQIDPAMFDQAQMEIQSMMEDNTYPVFLKSDIYLEYTTIGGESPKNYSDQSSGSGTGKGPSGYLPTLNEDEEWRCDQGGEHERERECIPSSLFSQKLALDSSSHCAGSNRRLSDGREFRPGTWREPVNPYYVNTGYAGAPVTSANDSEQQHLSKTLPGSLGTMQTGHGKHSSKSTAKVDSGNLHHHKHVYHHVHHHGGVKPKEQIDGESTQRVQTNFPWNVESHNYATKSRNYAESMGMAPNPMDSLAYSGKVSMLSKRNAKKADLGKSESASHEMPVVPEDSERHQKILQWIMEGEKEIIRHKKSNHSSSSAKKQPPTELARPLSIERPGAVHPWVSAQLRNVVQPSHPFIQDPTMPPNPAPNPLTQLVSKPGARLEEEEKKAAKMPQKQRLKPQKKNVSAPSQPCDNIVVAYYFCGEPIPYRTMVKGRVVTLGQFKELLTKKGNYRYYFKKVSDEFDCGVVFEEVREDDMILPIYEEKIIGQVEKID
modifications: left off: small tags and cut ends
notes: Xaxin having amino acid residues 324-504 deleted
B4: GID-1: Myc-tagged fragment, amino acid residues 277-545 of Xenopus axin (Xaxin) (protein)
chain: SHCAGSNRRLSDGREFRPGTWREPVNPYYVNTGYAGAPVTSANDSEQQSMSSDADTMSLTDSSVDGIPPYRLRKHYRREMQESANANGRGPLPHIPRTYHMPKDIHVDPEKFAAELISRLEGVLRDREAEQKLEERLKRVRAEEEGDDGDVSSGPSVISHKLPSGPPMHHFNSRYSETGCVGMQIRDAHEENPESILDEHVQRVMKTPGCQSPGTGRHSPKSRSPDGHLSKTLPGSLGTMQTGHGKHSSKSTAKVDSGNLHHHKHVYHH
modifications: left off: small tags and cut ends
B5: deltaRGS: Xaxin having amino acid residues 80-290 (RGS domain) deleted (protein)
chain: MSVKGKGFPLDLGGSFTEDAPRPPVPGEEGELITTDQRPFSHTYYSLKNDGIKNETSTATPRRPDLDLGYEPEGSASPTPREFRPGTWREPVNPYYVNTGYAGAPVTSANDSEQQSMSSDADTMSLTDSSVDGIPPYRLRKHYRREMQESANANGRGPLPHIPRTYHMPKDIHVDPEKFAAELISRLEGVLRDREAEQKLEERLKRVRAEEEGDDGDVSSGPSVISHKLPSGPPMHHFNSRYSETGCVGMQIRDAHEENPESILDEHVQRVMKTPGCQSPGTGRHSPKSRSPDGHLSKTLPGSLGTMQTGHGKHSSKSTAKVDSGNLHHHKHVYHHVHHHGGVKPKEQIDGESTQRVQTNFPWNVESHNYATKSRNYAESMGMAPNPMDSLAYSGKVSMLSKRNAKKADLGKSESASHEMPVVPEDSERHQKILQWIMEGEKEIIRHKKSNHSSSSAKKQPPTELARPLSIERPGAVHPWVSAQLRNVVQPSHPFIQDPTMPPNPAPNPLTQLVSKPGARLEEEEKKAAKMPQKQRLKPQKKNVSAPSQPCDNIVVAYYFCGEPIPYRTMVKGRVVTLGQFKELLTKKGNYRYYFKKVSDEFDCGVVFEEVREDDMILPIYEEKIIGQVEKID
modifications: left off: small tags and cut ends
notes: Xaxin having amino acid residues 80-290 (RGS domain) deleted
B6: GID-2: Myc-tagged fragment, Xaxin amino acid residues 320-429 (protein)
chain: DSEQQSMSSDADTMSLTDSSVDGIPPYRLRKHYRREMQESANANGRGPLPHIPRTYHMPKDIHVDPEKFAAELISRLEGVLRDREAEQKLEERLKRVRAEEEGDDGDVSS
modifications: left off: small tags and cut ends

Legend:
GSK-3 beta [1] = test: In ovo tau phosphorylation assay: GSK-3 beta and Xaxin constructs co-expressed in Xenopus oocytes; type: cell-based; conditions: construct co-expressed with GSK-3 beta in Xenopus oocytes; tau microinjected; PHF-1 immunoblot
Protocol: Stage VI Xenopus oocytes were isolated by collagenase treatment (Smith et al., 1994, Meth. Cell Biol. 36:45-58) and were injected with mRNA prepared by in vitro transcription (mMessage Machine™; Ambion, Austin, Tex.). 10 nanoliters of mRNA (containing 1-2 nanograms per nanoliter) was injected for each construct (unless otherwise specified), and the injected oocytes were incubated for 16 hours at 18° C. To analyze the effects of Xaxin constructs on dorsal-ventral pattern formation, Xenopus embryos were injected with 10 nanoliters of mRNA (0.1-0.2 nanogram per nanoliter) into one dorsal or ventral cell of a 4 cell embryo and dorsal axes were assessed at the tadpole stage. For Xaxin co-immunoprecipitation, fertilized eggs were injected with 10 nanoliters of Xaxin tagged with Myc, with hemagglutinin, or with both Myc and hemagglutinin (1 nanogram per nanoliter) and harvested at the blastula stage (stage 8).
In ovo phosphorylation of tau by GSK-3 beta was performed by microinjection of tau protein into oocytes expressing GSK-3 beta and Xaxin constructs. After 90 minutes, oocytes were homogenized and tau phosphorylation was analyzed in western blots using phospho-specific antibodies as described (Hedgepeth et al., 1997, Develop. Biol. 185:82-91). In vitro assays for GSK-3 beta activity were performed as described (Klein et al., 1996, Proc. Natl. Acad. Sci. USA 93:8455-8459). Recombinant GID-2/his protein (described below) was purified by affinity chromatography and added to in vitro assays at selected concentrations.
In the experiments presented in this example, a tau phosphorylation assay (described in Hedgepeth et al., 1997, Develop. Biol. 185:82-91) was used to examine the activity of GSK-3 beta in Xenopus oocytes in the presence of full length axin and axin deletion mutants. […] Furthermore, GSK-3 beta-dependent tau phosphorylation occurs in oocytes at the same sites (tau serine residues 396 and 404) that are phosphorylated by GSK-3 beta in vitro and occurs with similarly rapid kinetics.
GSK-3 beta was expressed in oocytes together with Myc-tagged full length Xaxin or with the amino-terminal (amino acid residues 63-288), GID-1 (amino acid residues 277-545), or carboxyl-terminal (amino acid residues 429-713) fragments of Xaxin, as depicted in FIG. 1A. Purified tau protein was then microinjected into the oocytes, and phosphorylation of tau was measured by immunoblotting using antibody PHF-1 or with antibodies that detect all (i.e. phosphorylated and non-phosphorylated) forms of tau.
In order to identify the domain of axin necessary for GSK-3 beta binding, multiple Myc-tagged GID deletion constructs (shown diagrammatically in FIG. 3A) were individually expressed in Xenopus oocytes in which GSK-3 beta was also expressed. Tau protein was microinjected into the oocytes, and immunoblotting was performed using phosphorylation-state-specific tau antibodies. A parallel group of oocytes expressing GSK-3 beta and the Myc-tagged GID deletion constructs were lysed, and GID proteins were immunoprecipitated using a Myc-specific antibody. The presence or absence of GSK-3 beta in GID immunoprecipitates was detected using GSK-3 beta-specific antibodies. GID deletion constructs which included amino acid residues 380-404 of Xaxin (i.e. constructs GID-1, GID-2, GID-4, GID-5, and GID-6) bound GSK-3 beta and inhibited GSK-3 beta mediated tau phosphorylation, as indicated in FIG. 3A. […] However, changing leucine residue 392 in FIG. 3B to proline abolishes its activity.

GSK-3 beta [2] = test: Co-immunoprecipitation of GSK-3 beta with Myc-tagged Xaxin constructs in Xenopus oocytes; type: binding; conditions: Myc-tagged construct co-expressed with GSK-3 beta in Xenopus oocytes; anti-Myc IP, anti-GSK-3 beta blot
Xenopus embryos = test: Dorsal axis duplication / dorsalization in Xenopus embryos after mRNA injection; type: in vivo; conditions: for effect on axial development / axis formation: construct expressed in embryos, injection side not stated

Molecule | GSK-3 beta-mediated tau phosphorylation (GSK-3 beta activity) (GSK-3 beta [1]) | binding with GSK-3 beta (co-immunoprecipitation) (GSK-3 beta [2]) | effect on axial development / axis formation (Xenopus embryos) | embryos that exhibited dorsalization (Xenopus embryos; construct(s) expressed in Xenopus embryos) [%]
B1 | inhibited | bound | – | –
B2 | partially inhibited | bound | – | –
B3 | no discernible effect | did not bind | infrequent ectopic posterior axis formation | –
B4 | virtually complete inhibition; also recorded: inhibited | bound | complete axis duplication | –
B5 | inhibited | bound | complete axis duplication | 86
B6 | inhibited | bound | – | –
